# Measurements taken from patent US20250277030A1, “ANTI-NAPI2B ANTIBODIES AND METHODS OF USE” (Zymeworks BC Inc., priority 2022, published 2025).
# T1: NaPi2b expressed on IGROV-1 cells (Homo sapiens, UniProt O95436)
# T1 construct: IGROV-1 cells express endogenous NaPi2b at a high level; endogenous in cells; host or cells: IGROV-1
# T1 sequence (O95436 1-690): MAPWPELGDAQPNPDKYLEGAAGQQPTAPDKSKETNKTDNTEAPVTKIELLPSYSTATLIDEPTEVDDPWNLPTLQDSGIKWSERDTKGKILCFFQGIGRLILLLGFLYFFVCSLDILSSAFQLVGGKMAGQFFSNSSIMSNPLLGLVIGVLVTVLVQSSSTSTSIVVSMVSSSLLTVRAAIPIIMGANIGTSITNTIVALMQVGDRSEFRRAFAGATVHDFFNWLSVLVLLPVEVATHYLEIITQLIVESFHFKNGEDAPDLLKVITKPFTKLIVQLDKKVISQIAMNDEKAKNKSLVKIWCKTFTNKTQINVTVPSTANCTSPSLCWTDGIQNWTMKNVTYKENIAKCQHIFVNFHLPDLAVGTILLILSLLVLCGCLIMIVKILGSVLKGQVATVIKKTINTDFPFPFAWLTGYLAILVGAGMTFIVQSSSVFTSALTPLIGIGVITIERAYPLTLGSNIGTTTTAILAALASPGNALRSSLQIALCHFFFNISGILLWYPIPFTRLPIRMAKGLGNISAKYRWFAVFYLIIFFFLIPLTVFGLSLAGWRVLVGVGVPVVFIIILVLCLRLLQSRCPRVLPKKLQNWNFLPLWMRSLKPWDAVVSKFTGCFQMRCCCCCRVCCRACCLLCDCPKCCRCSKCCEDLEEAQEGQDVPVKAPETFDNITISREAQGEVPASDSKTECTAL
# Experiments:
# OVCAR-3 cells = assay: In vitro cytotoxicity, 2D monolayer, CellTiter-Glo, OVCAR-3; assay type: cell-based, human; conditions: OVCAR-3, 4 days; IC = Incomplete Curve
# Procedure: (§1) The cytotoxicity as measured by cell growth inhibition of the humanized variant v29456 (H1L2) conjugated to various drug-linkers were assessed in a panel of NaPi2b-expressing cell lines as described below. Cell lines used were OVCAR-3 (ovarian carcinoma), IGROV-1 (ovarian carcinoma), and HCC-78 (lung carcinoma). ADCs with antibody palivizumab (anti-RSV) (v22277) were used as non-targeted controls.
# (§2) OVCAR-3 were cultured in RPMI 1640 Medium, ATCC modification (Thermo Fisher Scientific, Waltham, MA) supplemented with 20% fetal bovine serum (FBS) (Thermo Fisher Scientific, Waltham, MA) and 0.01 μg/mL human insulin (Sigma-Aldrich, Oakville, ON). […] After incubation, CellTiter-Glo® reagent (Promega Corporation, Madison, WI) was added in all wells and luminescence corresponding to ATP present in each well was measured using a Synergy™H1 plate reader (BioTek Instruments, Winooski, VT). Percent cytotoxicity values were calculated by the following formula: (1−(Luminescence of Treated Cells/Average Luminescence of Untreated Cells))×100, and plotted against test article concentration using GraphPad Prism 9 software (GraphPad Software, San Diego, CA). EC50 values were calculated based on a non-linear regression log(agonist) versus response, variable slope (four parameters) by GraphPad Prism 9.
# HCC-78 cells = assay: In vitro cytotoxicity, 2D monolayer, CellTiter-Glo, HCC-78; assay type: cell-based, human; conditions: HCC-78, 4 days
# Procedure: as §1, §2
# [1] = target: T1, NaPi2b expressed on IGROV-1 cells; assay: Cellular binding of bivalent antibodies to IGROV-1 cells by flow cytometry (Example 13); conditions: IGROV-1, 24 hours at 4° C., NB = no cellular binding
# Procedure: IGROV-1 cells express endogenous NaPi2b at a high level.
# Briefly, cells were seeded at 50,000 cells/well in conical-bottom 96-well plates and treated with test antibody for 24 hours at 4° C. to prevent internalization. Palivizumab (anti-RSV antibody, v22277) was included as a negative control. […] Following incubation, cells were washed and stained with anti-Human IgG Fc AF647 conjugate (Jackson Immuno Research Labs, West Grove, PA; Cat. No. 109-605-098) at 4° C. for 30 min. Following incubation and washing, fluorescence was detected by flow cytometry on a BD LSRFortessa™ Cell Analyzer (BD Biosciences, Franklin Lake, NJ) with 1,000 minimum events collected per well. The AF647/APC-A GeoMean (fluorescence signal geometric mean, proportional to anti-Human AF647 binding) was calculated for the live cell population using FlowJo™ Version 10.8.1 (BD Biosciences, Franklin Lake, NJ) and plotted for each test antibody using GraphPad Prism Version 9 (GraphPad Software, San Diego, CA).
# IGROV-1 cells = assay: In vitro cytotoxicity, 2D monolayer, CellTiter-Glo, IGROV-1; assay type: cell-based, human; conditions: IGROV-1, 4 days
# Procedure: as §1, §2
# [2] = NS-ELISA non-specific binding, heparin; conditions: mAb at 100 nM
# Procedure: (§3) The isoelectric point was measured by capillary isoelectric focusing (cIEF), the propensity for self-aggregation was measured by Affinity-capture self-interaction nanoparticle spectroscopy (AC-SINS) and non-specific binding was measured by NS-ELISA, as described below.
# (§4) NS-ELISA was used to measure the propensity of the antibodies to bind to a range of biomolecules to emulate the undesirable non-specific interactions to biological matrices in vivo as described below.
# (§5) NS-ELISA was carried out in Corning®96-well EIA/RIA Easy Wash™ Clear Flat Bottom Polystyrene High Bind Microplate coated overnight at 4° C. with 50 μL of Heparin (Sigma, H3149) diluted with 50 mM sodium carbonate pH 9.6 to a final concentration of 250 μg/mL. The plate was incubated for 2 days at room temperature, wells that were coated with heparin were not covered to allow air dry. […] Reactions were stopped after approximately 10 minutes by adding 100 μL of 1 M HCl to each well, and absorbance was read at 450 nm. Binding scores were calculated as the ratio of the ELISA signal of the antibody (antibody-treated) to the signal of a well containing buffer instead of the primary antibody (untreated). The cutoffs considered for each binding molecule (ssDNA, KLH, insulin, dsDNA and heparin) were internally calculated, based on the average of Zymeworks Inc. produced antibodies and antibodies benchmarks published in the literature.
# [3] = Capillary isoelectric focusing (cIEF); assay type: physicochemical; conditions: main isoform; 0.5 mg/mL
# Procedure: as §3
# cIEF was carried out using Maurice C. (ProteinSimple®) system, System Suitability Kit and Method Development Kit. System suitability standard, fluorescence calibration standard, cartridge and samples were prepared according to vendor's recommendations. The capillary was automatically calibrated with a fluorescence standard preconditioned with Maurice cIEF System Suitability Kit to ensure the capillary was functioning properly. The antibody samples were diluted to a concentration of 0.5 mg/mL in a final volume of 40 μL in Gibco™ Distilled Water, and mixed Maurice cIEF Method Development Kit Samples. The samples were then vortexed, centrifuged and the supernatant pipetted into individual wells of a 96-well plate. All electropherograms were detected with UV absorbance at 280 nm. All data analyses were performed using vendor software Compass for iCE (ProteinSimple®).
# Insulin = target: T2, Insulin (Homo sapiens, UniProt P01308); assay: NS-ELISA non-specific binding, insulin; conditions: mAb at 100 nM
# T2 construct: purchased Sigma-Aldrich 19278
# Procedure: as §3, §4, §5
# ssDNA = assay: NS-ELISA non-specific binding, ssDNA; conditions: mAb at 100 nM
# Procedure: as §3, §4, §5
# dsDNA = assay: NS-ELISA non-specific binding, dsDNA; conditions: mAb at 100 nM
# Procedure: as §3, §4, §5
# [4] = Thermal stability by differential scanning calorimetry (DSC); assay type: physicochemical; conditions: 0.4 mg/mL in PBS, scan 20° C. to 100° C. at 60° C./hr
# Procedure: The thermal stability of the humanized antibody variants was assessed by differential scanning calorimetry (DSC) as described below.
# 400 μL of purified samples primarily at concentrations of 0.4 mg/mL in PBS were used for DSC analysis with a VP-Capillary DSC (Malvern Panalytical Inc., Westborough, MA). At the start of each DSC run, 5 buffer blank injections were performed to stabilize the baseline, and a buffer injection was placed before each sample injection for referencing. Each sample was scanned from 20° C. to 100° C. at a 60° C./hr rate, with low feedback, 8 sec filter, 3 min pre-scan thermostat, and 70 psi nitrogen pressure. The resulting thermograms were referenced and analyzed using Origin 7 software (OriginLab Corporation, Northampton, MA) to determine melting temperature (Tm) as an indicator of thermal stability.
# T2 sequence (P01308 25-54 limits assumed): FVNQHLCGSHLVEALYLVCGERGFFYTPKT
# T2 sequence (P01308 90-110 limits assumed): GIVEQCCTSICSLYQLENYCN
Molecule,EC50 (OVCAR-3 cells) [nM],EC50 (HCC-78 cells) [nM],Bmax (MFI) [1],Curve Hill Slope (h) [1],Kd ([1]; apparent Kd) [nM],EC50 (IGROV-1 cells) [nM],"NS-ELISA binding score (ratio of signal between antibody-treated and untreated), Heparin [2]",cIEF pI [3],"NS-ELISA binding score (ratio of signal between antibody-treated and untreated), Insulin (Insulin)","NS-ELISA binding score (ratio of signal between antibody-treated and untreated), ssDNA (ssDNA)","NS-ELISA binding score (ratio of signal between antibody-treated and untreated), dsDNA (dsDNA)",Fab Tm [4] [°C]
"v18993-DL2 (conjugate, chains of the INN, looked up, drug-linker DL2) VH: EVQLVESGGGLVQPGGSLRLSCAASGFSFSDFAMSWVRQAPGKGLEWVATIGRVAFHTYYPDSMKGRFTISRDNSKNTLYLQMNSLRAEDTAVYYCARHRGFDVGHFDFWGQGTLVTVSS VL: DIQMTQSPSSLSASVGDRVTITCRSSETLVHSSGNTYLEWYQQKPGKAPKLLIYRVSNRFSGVPSRFSGSGSGTDFTLTISSLQPEDFATYYCFQGSFNPLTFGQGTKVEIK",0.49,1.77,"39,758 MFI",1.1,3,2.12,,,,,,
"v18993-DL1 (conjugate, chains of the INN, looked up, drug-linker DL1) VH: EVQLVESGGGLVQPGGSLRLSCAASGFSFSDFAMSWVRQAPGKGLEWVATIGRVAFHTYYPDSMKGRFTISRDNSKNTLYLQMNSLRAEDTAVYYCARHRGFDVGHFDFWGQGTLVTVSS VL: DIQMTQSPSSLSASVGDRVTITCRSSETLVHSSGNTYLEWYQQKPGKAPKLLIYRVSNRFSGVPSRFSGSGSGTDFTLTISSLQPEDFATYYCFQGSFNPLTFGQGTKVEIK",,5.45,,,,3.45,,,,,,
"v29452: humanized anti-NaPi2b IgG1/kappa antibody H1L3; VH SEQ ID NO:24, VL SEQ ID NO:30 (antibody, V domains shown, v29452, v29456, v29460 VH (H1); v29449, v29450, v29451, v29452 VL (L3)) VH: QVQLVQSGAEVKKPGASVKVSCKASGFTFTSYNVHWVRQAPGQGLEWMGAISPGNGDLSYAQKFQGRVTMTRDTSTSTVYMELSSLRSEDTAVYYCARGRTGMGAVDYWGQGTLVTVSS VL: DVQMTQSPSSLSASVGDRVTITCRASQDVYSYLNWYQQKPGKAVKLLIYYTSRLQSGVPSRFSGSGSGTDYTLTISSLQPEDIATYYCQQYNIFPWTFGQGTKLEIK",,,"47,763 MFI",0.9,,,1.05,8.53,1.03,1.22,1.0,79.5
